Results reported in the RNAGym collection of RNA variant scans (doi:10.7554/elife.90254).

B1: OR4K15 (parent)
chain: GUUAACGGUCAUAGGCCAUGGAAACUAGGAGCACCAUUUCGCUGCCAGUGAAGAAAUGAACAAAGAAAAUCUGGGCCAGGCAGGCAUCAAAAGAAAUAGUCUUGCGCUCAACCAGAAAGUCUGUAAUCAUUUUAAGGGUA

Variants of: B1
Test: self-cleavage, relative activity (ratio to wild type); higher = more cleavage; in vitro, sequencing; the parent is a self-cleaving ribozyme

First: GUUAACGGUCAUAGGCCAUGGAAACUAUGAGCACCAUUUCGCUGCCAGUGAAGAAAUGAACAAAGAAGAUCUGGGCCAGGCAGGCAUCAAAAGAAAUAGUCUUGCGCUCAACCAGAAAGUCUGUAAUCAUUUUAAGGGUA [G28U A68G]
Second: GUUAACGGUCAUAGGCCAUGGAAACUAAGAGCACCAUUUCGCUGCCAGUGAAGAAAUGAACAAAGAAAAUCUGGGCCAGGCAGGCAUCAAAAGAAAUAGUCUUGCGCUCAACCAGAAAGUCUGUAAUAAUUUUAAGGGUA [G28A C128A]
The self-cleavage of the first is lower: 1.22 for the first, 1.34 for the second.

Compared with GUUAACGGUCAUAGGCCAUGGAAACUAAGAGCACCAUUUCGCUGCCAGUGAAGAAAUGAACAAAGAAAAUCUGGGCCAGGCAGGCAUCAAAAGAAAUAGUCUUGCGCUCGACCAGAAAGUCUGUAAUCAUUUUAAGGGUA [G28A A110G], GUUAACGGUCAUAGGCCAUGGAAACUAGAAGCACCAUUUCGCUGCCAGUGAAGAAAUGAACAAAGAAAAUCUGGGCCAGGCAGGCAUCAAAAGAAAUAGUCUUGCGCUCAACCAGAGAGUCUGUAAUCAUUUUAAGGGUA [G29A A117G] is higher in self-cleavage: 0.17 for the first, 1.77 for the second.

Going from GUUAACGGUCAUAGGCCAUGGAAACUAUGAGCACCAUUUCGCUGCCAGAGAAGAAAUGAACAAAGAAAAUCUGGGCCAGGCAGGCAUCAAAAGAAAUAGUCUUGCGCUCAACCAGAAAGUCUGUAAUCAUUUUAAGGGUA [G28U U49A] to GUUAACGGUCAUAGGCCAUGGAAACUAUGAGCACCAUUUCGCUGCCAGUGAAGAAAUGAGCAAAGAAAAUCUGGGCCAGGCAGGCAUCAAAAGAAAUAGUCUUGCGCUCAACCAGAAAGUCUGUAAUCAUUUUAAGGGUA [G28U A60G], the self-cleavage falls from 2.04 to 1.57.

First: GUUAACGGUCAUAGGCCAUGGAAACUAGAAGCACCAUUUCGCUGCCAGUGAAGAAAUGAACAAAGAAAAUCUGGGCCAGGCAGGCAUCAAAAGAAGUAGUCUUGCGCUCAACCAGAAAGUCUGUAAUCAUUUUAAGGGUA [G29A A96G]
Second: GUUAACGGUCAUAGGCCAUGGAAACUAAGAGCACCAUUUCGCUGCCAGUGAAGAAAUGAACAAAGAAAAUCUGGGCCAGGCAGGCAUCUAAAGAAAUAGUCUUGCGCUCAACCAGAAAGUCUGUAAUCAUUUUAAGGGUA [G28A A89U]
The self-cleavage of the first is higher: 2.13 for the first, 1.38 for the second.

First: GUUAACGGUCAUAGGCCAUGGAAACUAGAAGCACCAUUUCGCUGCCAGUGAAGAAAUGAACAAAGAAAAUCCGGGCCAGGCAGGCAUCAAAAGAAAUAGUCUUGCGCUCAACCAGAAAGUCUGUAAUCAUUUUAAGGGUA [G29A U72C]
Second: GUUAACGGUCAUAGGCCAUGGAAACUAAGAGCACCAUUUCGCUGCCAGUGAAGAAACGAACAAAGAAAAUCUGGGCCAGGCAGGCAUCAAAAGAAAUAGUCUUGCGCUCAACCAGAAAGUCUGUAAUCAUUUUAAGGGUA [G28A U57C]
The self-cleavage of the first is lower: 0.27 for the first, 0.4 for the second.

Compared with GUUAACGGUCAUAGGCCAUGGAAACUACGAGCACCAUUUCGCUGCCAGUGAAGAAAUGAACAAGGAAAAUCUGGGCCAGGCAGGCAUCAAAAGAAAUAGUCUUGCGCUCAACCAGAAAGUCUGUAAUCAUUUUAAGGGUA [G28C A64G], GUUAACGGUCAUAGGCCAUGGAAACUAGAAGCACCAUUACGCUGCCAGUGAAGAAAUGAACAAAGAAAAUCUGGGCCAGGCAGGCAUCAAAAGAAAUAGUCUUGCGCUCAACCAGAAAGUCUGUAAUCAUUUUAAGGGUA [G29A U39A] is higher in self-cleavage: 0.77 for the first, 1.8 for the second.

Going from GUUAACGGUCAUAGGCCAUGGAAACUAAGAGCACCAUUUCGCUGCCAGUGAAGAAAUGAACAAAGAAAAUCUGGGCCAGGCAGGCUUCAAAAGAAAUAGUCUUGCGCUCAACCAGAAAGUCUGUAAUCAUUUUAAGGGUA [G28A A86U] to GUUAACGGUCAUAGGCCAUGGAAACUAAGAGCACCAUUUCGCUGCCAGUGAAGAAAUGAACAAAGAAAAUCUGGGCCAGGCAGGCAUCAAAAGAAAUAGUCUUGCGCUCAACCAGAAAGUCUGUAAUCGUUUUAAGGGUA [G28A A129G], the self-cleavage falls from 1.88 to 0.99.

First: GUUAACGGUCAUAGGCCAUGGAAACUAAGAGCACCAUUUCGCUGCCAGUGAAGAAAUGAACAAAGAGAAUCUGGGCCAGGCAGGCAUCAAAAGAAAUAGUCUUGCGCUCAACCAGAAAGUCUGUAAUCAUUUUAAGGGUA [G28A A67G]
Second: GUUAACGGUCAUAGGCCAUGGAAACUAAGAGCACCAUUUCGCUGCCAGUGAAGAAAUGAACAAAGAAAAUCUGGGCCAGGCAGGCAUCAAAAGAAACAGUCUUGCGCUCAACCAGAAAGUCUGUAAUCAUUUUAAGGGUA [G28A U97C]
The self-cleavage of the first is higher: 1.55 for the first, 0.59 for the second.

First: GUUAACGGUCAUAGGCCAUGGAAACUAGAAGCACCAUUUCGCUGCCAGUGAAGAAGUGAACAAAGAAAAUCUGGGCCAGGCAGGCAUCAAAAGAAAUAGUCUUGCGCUCAACCAGAAAGUCUGUAAUCAUUUUAAGGGUA [G29A A56G]
Second: GUUAACGGUCAUAGGCCAUGGAAACUAAGAGCACCAUUUCGCUGCCAGUGAAGAAGUGAACAAAGAAAAUCUGGGCCAGGCAGGCAUCAAAAGAAAUAGUCUUGCGCUCAACCAGAAAGUCUGUAAUCAUUUUAAGGGUA [G28A A56G]
The self-cleavage of the first is higher: 1.5 for the first, 1.49 for the second.

Compared with GUUAACGGUCAUAGGCCAUGGAAACUAGAAGCACCAUUUCGCUGCCAGUGAAGAAAUGAACAAAGAAAAUCUGGGCCAGGCAGGCAUCAAAAGAAAUAGUCUUGCGCUCAACCAGAAAGUCUGUGAUCAUUUUAAGGGUA [G29A A125G], GUUAACGGUCAUAGGCCAUGGAAACUAUGAGCACCAUUUCGCUGCCGGUGAAGAAAUGAACAAAGAAAAUCUGGGCCAGGCAGGCAUCAAAAGAAAUAGUCUUGCGCUCAACCAGAAAGUCUGUAAUCAUUUUAAGGGUA [G28U A47G] is higher in self-cleavage: 0.24 for the first, 2.28 for the second.

Going from GUUAACGGUCAUAGGCCAUGGAAACUACGAGCACCAUUUCGCUGCCAGUGAAGAAAUGAACAAAGAAAAUCUGGGCCAGGCAGGCAUCAAAAGAAAUAGUCUUGCGCUCAACCAGAAAGUCUGUAAUCAUUUUAAGGGUA [G28C] to GUUAACGGUCAUAGGCCAUGGAAACUAUGAGCACCAUUUCGCUGCCAGUGAAGAAAUGAACAAAGAAAAUCUGGGCCAGGCAGGCAUCAAAAGAAAUAGUCUUGCGCUCAACCAGAAAGUCUGUAAUCAUUUUAAGGGUA [G28U], the self-cleavage falls from 0.93 to 0.74.

Going from GUUAACGGUCAUAGGCCAUGGAAACUAAGAGCACCAUUUCGCUGCCAGUGAAGAAAUGAACAAAGAAAAUCUGGGCCAGGCAGGCAUCAAAAGAAAUAGUCUUGCGCUCAACCGGAAAGUCUGUAAUCAUUUUAAGGGUA [G28A A114G] to GUUAACGGUCAUAGGCCAUGGAAACUAUGAGCACCAUUUCGCUGCCAGUGAAGAAAUGAACAAAGAAAAUCUGGGCCAGGCAGGCAUCAAAAGAAAUAGCCUUGCGCUCAACCAGAAAGUCUGUAAUCAUUUUAAGGGUA [G28U U100C], the self-cleavage rises from 0.35 to 2.35.

Compared with GUUAACGGUCAUAGGCCAUGGAAACUAUGAGCACCAUUUCGCUGCCAGUGAAGAAAUGAACAAAGAAAAUCUGGGCCAGGCAGGCAUCAAAAGAAAUAGACUUGCGCUCAACCAGAAAGUCUGUAAUCAUUUUAAGGGUA [G28U U100A], GUUAACGGUCAUAGGCCAUGGAAACUAAGAGCACCAUUUCGCUGCCAGUGAAGAAAUGAACAAAGAAAAUCUGGGCCAGGCAGGCAUCAAAAGAAAUAGUCUUGCGCUCAACCAGAAAGUCUGUAAUCAUCUUAAGGGUA [G28A U131C] is higher in self-cleavage: 0.25 for the first, 0.99 for the second.

Going from GUUAACGGUCAUAGGCCAUGGAAACUAAGAGCACCAUUUCGCUGCCAGUGAAGAAAUGAACAAAGAAAAUCUGGGCCAGGCAGGCAUCAAAAGAAAUGGUCUUGCGCUCAACCAGAAAGUCUGUAAUCAUUUUAAGGGUA [G28A A98G] to GUUAACGGUCAUAGGCCAUGGAAACUAGAAGCACCAUUUCGCUGCCAGUGAAGAAAUGGACAAAGAAAAUCUGGGCCAGGCAGGCAUCAAAAGAAAUAGUCUUGCGCUCAACCAGAAAGUCUGUAAUCAUUUUAAGGGUA [G29A A59G], the self-cleavage rises from 0.39 to 1.26.

Going from GUUAACGGUCAUAGGCCAUGGAAACUAAGAGCACCAUUUCGCUGCCAGUGAAGAAAUGAACAAAGAAAAUCUGGGCCUGGCAGGCAUCAAAAGAAAUAGUCUUGCGCUCAACCAGAAAGUCUGUAAUCAUUUUAAGGGUA [G28A A78U] to GUUAACGGUCAUAGGCCAUGGAAACUAAGAGCACCAUUUCGCUGCCAGUGAAGAAAUGAACAAAGAAAAUCUGGGCCAGGCAGGCAUCAAAAGAAAUAGUCUUGCGCUCAACCAGAAAGUCUGUAAUCACUUUAAGGGUA [G28A U130C], the self-cleavage rises from 0.18 to 1.2.

Compared with GUUAACGGUCAUAGGCCAUGGAAACUAAGAGCACCAUUUCGCUGCCAGUGAAGAAAUGAACAAAGAAGAUCUGGGCCAGGCAGGCAUCAAAAGAAAUAGUCUUGCGCUCAACCAGAAAGUCUGUAAUCAUUUUAAGGGUA [G28A A68G], GUUAACGGUCAUAGGCCAUGGAAACUAUGAGCACCAUUUCGCUGCCAGUGAAGAAAUGAACAAAGAAAAUCUGGGCCAGGCAGGCAUCAAAAGAAAUAGUCUUGCGCUCAACCAGAAAGUCUGUAAUCAUUUUCAGGGUA [G28U A134C] is lower in self-cleavage: 2.39 for the first, 2.09 for the second.

Compared with GUUAACGGUCAUAGGCCAUGGAAACUAGAAGCACCAUUUCGCUGCCAGUGAAGGAAUGAACAAAGAAAAUCUGGGCCAGGCAGGCAUCAAAAGAAAUAGUCUUGCGCUCAACCAGAAAGUCUGUAAUCAUUUUAAGGGUA [G29A A54G], GUUAACGGUCAUAGGCCAUGGAAACUAUGAGCACCAUUUCGCUGCCAGUGAAGAAAUGAACAAAGAAAAUCUGGGCCAGGCAGGCAUCAAAAGAAAUAGUCUUGCGCUCAUCCAGAAAGUCUGUAAUCAUUUUAAGGGUA [G28U A111U] is lower in self-cleavage: 1.96 for the first, 0.3 for the second.

GUUAACGGUCAUAGGCCAUGGAAACUAAGAGCACCAUUUCGCUGCCAGUGAAGACAUGAACAAAGAAAAUCUGGGCCAGGCAGGCAUCAAAAGAAAUAGUCUUGCGCUCAACCAGAAAGUCUGUAAUCAUUUUAAGGGUA [G28A A55C] and GUUAACGGUCAUAGGCCAUGGAAACUAGAAGCACCAUUUCGCUGCCAGUGAAGAAAUGAACAAAGAAAAUCUGGGCCAGGCAGGCACCAAAAGAAAUAGUCUUGCGCUCAACCAGAAAGUCUGUAAUCAUUUUAAGGGUA [G29A U87C] are the same in self-cleavage: 1.7 for the first, 1.7 for the second.

Compared with GUUAACGGUCAUAGGCCAUGGAAACUAGAAGCACCAUUUCGCUGCCAGUGAAGAAAUGAACAAAGAAAAUCUGGGCCAGGCAGGCAACAAAAGAAAUAGUCUUGCGCUCAACCAGAAAGUCUGUAAUCAUUUUAAGGGUA [G29A U87A], GUUAACGGUCAUAGGCCAUGGAAACUAAGAGCACCAUUUCGCUGCCAGUGAGGAAAUGAACAAAGAAAAUCUGGGCCAGGCAGGCAUCAAAAGAAAUAGUCUUGCGCUCAACCAGAAAGUCUGUAAUCAUUUUAAGGGUA [G28A A52G] is higher in self-cleavage: 1.79 for the first, 1.9 for the second.

Going from GUUAACGGUCAUAGGCCAUGGAAACUAGAAGCACCAUUUCGCUGCCAGUGAAGAAAUGAACAAAGAAAAUCUGGGCCGGGCAGGCAUCAAAAGAAAUAGUCUUGCGCUCAACCAGAAAGUCUGUAAUCAUUUUAAGGGUA [G29A A78G] to GUUAACGGUCAUAGGCCAUGGAAACUAAGAGCACCAUUCCGCUGCCAGUGAAGAAAUGAACAAAGAAAAUCUGGGCCAGGCAGGCAUCAAAAGAAAUAGUCUUGCGCUCAACCAGAAAGUCUGUAAUCAUUUUAAGGGUA [G28A U39C], the self-cleavage rises from 0.28 to 2.09.

In the case of GUUAACGGUCAUAGGCCAUGGAAACUAGAGGCACCAUUUCGCUGCCAGUGAAGAAAUGAACAAAGAAAAUCUGGGCCAGGCAGGCAUCAAAAGAAAUAGUCUUGCGCUCAACCAGAAAGUCUGUAAUCAUUUUAAGGGUA [G29A A30G], the self-cleavage is reported as 1.16.
